Laboratory results as given in PMC3947452.

Molecular target: Flag-tagged PKMζ (protein kinase M ζ) (human) (UniProt Q05513)
Assay: co-IP

Sequence of UniProt Q05513 (Q05513 184-592): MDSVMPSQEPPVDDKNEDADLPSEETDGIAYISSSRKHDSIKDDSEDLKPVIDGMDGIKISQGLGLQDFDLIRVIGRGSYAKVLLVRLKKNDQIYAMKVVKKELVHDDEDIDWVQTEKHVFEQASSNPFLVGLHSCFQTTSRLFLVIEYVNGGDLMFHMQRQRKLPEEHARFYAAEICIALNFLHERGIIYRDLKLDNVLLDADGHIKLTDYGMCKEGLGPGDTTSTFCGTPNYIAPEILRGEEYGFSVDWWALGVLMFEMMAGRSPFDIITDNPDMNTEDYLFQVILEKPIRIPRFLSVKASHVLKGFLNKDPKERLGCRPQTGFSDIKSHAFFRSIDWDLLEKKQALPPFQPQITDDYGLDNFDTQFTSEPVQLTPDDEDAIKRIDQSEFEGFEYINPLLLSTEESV

## synthetic biotin-labeled peptide containing the binding motif (KIBRA position 948-978)
  IC50: 60 nM
